The values that follow come from the supplement of paper PMC10724198.

Data set [1] deals with Saccharomyces cerevisiae. Put plainly: protein stability index of tFT-peptide fusion in deletion strain of DAS1 (PSI (0-1 scale)); higher = more stable (slower turnover).
In data set [2] the test system is Saccharomyces cerevisiae. Put plainly: protein stability index of tFT-peptide fusion in wild type (PSI (0-1 scale)); higher = more stable (slower turnover). The following applies: genetic background: wild type.
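Wherever protein stability index of tFT-peptide fusion in deletion strain of DAS1 is given: PSI is a weighted mean of each variant's read distribution over the sorted stability bins, computed only for variants having over 10 reads in total.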
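Wherever protein stability index of tFT-peptide fusion in wild type is given: PSI derived as read-weighted mean over the 8 sorting bins, only variants exceeding 10 total reads kept, mCherry placed adjacent to the peptide and sfGFP distal.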

On to PSLAASFQRVVG, for which the protein stability index in the data set with Saccharomyces cerevisiae [1] was found to be 0.672; with Saccharomyces cerevisiae [2], 0.692.
The matching figures for PSLAASFTRVVG: 0.648 and 0.647.
The matching figures for PSLAASFWIVVG: 0.421 and 0.418.
The matching figures for PSLAASFWMVVG: 0.637 and 0.525.
For PSLAASFWRMVG, the values for the protein stability index in the data set with Saccharomyces cerevisiae [1] and with Saccharomyces cerevisiae [2] were 0.646 and 0.151, respectively.
The matching figures for PSLAASFWRVIG: 0.677 and 0.151.
The like results for PSLAASFWRVRG were, in that order, 0.683 and 0.666.
The like results for PSLAASFWRVTG were, in that order, 0.687 and 0.142.
PSLAASFWRVVF: the figures for the protein stability index in the data set on Saccharomyces cerevisiae [1] and in the data set with Saccharomyces cerevisiae [2] were 0.701 and 0.699, respectively.
Regarding PSLAASFWRVVGD, the protein stability index came out at 0.691 with Saccharomyces cerevisiae [1] and 0.689 with Saccharomyces cerevisiae [2].
The like results for PSLAASFWRVVGW were, in that order, 0.699 and 0.714.
The like results for PSLAASFWRVVK were, in that order, 0.688 and 0.661.
The like results for PSLAASRWRVVG were, in that order, 0.682 and 0.156.
Consider PSLAAWFWRVVG, for which the protein stability index amounted to 0.706 with Saccharomyces cerevisiae [1] and 0.147 in the data set on Saccharomyces cerevisiae [2].
With PSLAAYFWRVVG, the values for the protein stability index with Saccharomyces cerevisiae [1] and in the data set with Saccharomyces cerevisiae [2] were 0.677 and 0.142, respectively.
The like results for PSLANSFWRVVG were, in that order, 0.711 and 0.269.
The matching figures for PSLATSFWRVVG: 0.687 and 0.158.
The like results for PSLTASFWRVVG were, in that order, 0.693 and 0.156.
Take PSTAASFWRVVG: the protein stability index in the data set on Saccharomyces cerevisiae [1] was found to be 0.701; in the data set with Saccharomyces cerevisiae [2], 0.135.
The like results for QLIQPLPVQFLN were, in that order, 0.616 and 0.0736.
For the sequence RLHQPLPVQFLN, the protein stability index in the data set with Saccharomyces cerevisiae [1] came out at 0.581; in the data set with Saccharomyces cerevisiae [2], 0.06.
The matching figures for RLIQDLPVQFLN: 0.588 and 0.14.
On to RLIQHLPVQFLN, for which the protein stability index amounted to 0.636 in the data set with Saccharomyces cerevisiae [1] and 0.0489 in the data set on Saccharomyces cerevisiae [2].
The matching figures for RLIQPGPVQFLN: 0.611 and 0.102.
The like results for RLIQPLPTQFLN were, in that order, 0.638 and 0.215.
The matching figures for RLIQPLPVHFLN: 0.587 and 0.0347.
For the sequence RLIQPLPVKFLN, the protein stability index came out at 0.584 in the data set with Saccharomyces cerevisiae [1] and 0.184 in the data set on Saccharomyces cerevisiae [2].
Take RLIQPLPVQFLC: the protein stability index stood at 0.566 in the data set with Saccharomyces cerevisiae [1] and 0.0371 with Saccharomyces cerevisiae [2].
The matching figures for RLIQPLPVQFLNG: 0.655 and 0.626.
The like results for RLIQPLPVQFLNW were, in that order, 0.686 and 0.667.
The like results for RLIQPQPVQFLN were, in that order, 0.593 and 0.0694.
For the sequence RLIQPVPVQFLN, the protein stability index in the data set with Saccharomyces cerevisiae [1] is 0.583; with Saccharomyces cerevisiae [2], 0.123.
The matching figures for RLLQPLPVQFLN: 0.595 and 0.037.
As to RLNQPLPVQFLN, the protein stability index worked out at 0.605 with Saccharomyces cerevisiae [1] and 0.0569 in the data set with Saccharomyces cerevisiae [2].
The like results for RLSQPLPVQFLN were, in that order, 0.607 and 0.0622.
Take RQIQPLPVQFLN: the protein stability index in the data set with Saccharomyces cerevisiae [1] is 0.604; in the data set on Saccharomyces cerevisiae [2], 0.124.
The like results for RRIQPLPVQFLN were, in that order, 0.601 and 0.0626.
